The Kd is the concentration at which binding is half-saturated.

From publication PMC8533099, “Kinetic Analysis of the Interaction of Nicking Endonuclease BspD6I with DNA” come the findings set out here.

Common to all, as to details: blunt
Data set [1] deals with T1, Nt.BspD6I (UniProt A3FEV7 1-604).
T1 sequence: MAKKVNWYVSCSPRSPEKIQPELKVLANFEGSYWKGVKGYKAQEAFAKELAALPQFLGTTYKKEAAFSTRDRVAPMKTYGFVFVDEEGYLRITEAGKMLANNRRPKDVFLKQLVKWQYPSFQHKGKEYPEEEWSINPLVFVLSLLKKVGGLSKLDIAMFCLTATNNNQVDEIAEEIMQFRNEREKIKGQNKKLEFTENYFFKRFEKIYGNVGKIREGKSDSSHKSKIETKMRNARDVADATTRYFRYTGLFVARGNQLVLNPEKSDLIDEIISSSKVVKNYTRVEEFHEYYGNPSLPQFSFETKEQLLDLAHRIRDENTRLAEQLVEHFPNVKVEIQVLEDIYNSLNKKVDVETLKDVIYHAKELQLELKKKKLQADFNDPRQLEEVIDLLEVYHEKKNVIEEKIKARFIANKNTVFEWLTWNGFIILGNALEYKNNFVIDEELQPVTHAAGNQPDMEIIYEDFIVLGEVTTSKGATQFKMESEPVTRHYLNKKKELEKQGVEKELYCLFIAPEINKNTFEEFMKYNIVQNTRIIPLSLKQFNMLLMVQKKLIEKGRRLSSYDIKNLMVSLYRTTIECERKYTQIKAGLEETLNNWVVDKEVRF
Put plainly: stopped-flow Trp fluorescence; 10 mM Mg2+; kobs k1 145 s-1, k2 10.0 s-1; Stopped-flow, 37 °C, 10 mM CaCl2 or 10 mM MgCl2 (or 0.4 mM EDTA without divalent metal); 1 µM enzyme (Trp) or 1 µM DNA (FRET); buffer, salt and pH not in the supplied text.

In data set [2] the target is T1, Nt.BspD6I. Put plainly: stopped-flow Trp fluorescence; 0.4 mM EDTA, no divalent metal; Stopped-flow, 37 °C, 10 mM CaCl2 or 10 mM MgCl2 (or 0.4 mM EDTA without divalent metal); 1 µM enzyme (Trp) or 1 µM DNA (FRET); buffer, salt and pH not in the supplied text.
Data set [3] deals with T1, Nt.BspD6I. The data set is described as follows: stopped-flow Trp fluorescence; 10 mM Ca2+; Stopped-flow, 37 °C, 10 mM CaCl2 or 10 mM MgCl2 (or 0.4 mM EDTA without divalent metal); 1 µM enzyme (Trp) or 1 µM DNA (FRET); buffer, salt and pH not in the supplied text.
Data set [4] deals with T1, Nt.BspD6I. The data set is described as follows: stopped-flow Trp fluorescence; 10 mM Mg2+; Stopped-flow, 37 °C, 10 mM CaCl2 or 10 mM MgCl2 (or 0.4 mM EDTA without divalent metal); 1 µM enzyme (Trp) or 1 µM DNA (FRET); buffer, salt and pH not in the supplied text.
In data set [5] the target is T1, Nt.BspD6I. Put plainly: stopped-flow Trp fluorescence; 10 mM Ca2+; kobs k1 261 s-1, k2 6.2 s-1; Stopped-flow, 37 °C, 10 mM CaCl2 or 10 mM MgCl2 (or 0.4 mM EDTA without divalent metal); 1 µM enzyme (Trp) or 1 µM DNA (FRET); buffer, salt and pH not in the supplied text.
Data set [6] deals with T1, Nt.BspD6I. Put plainly: stopped-flow Trp fluorescence; 10 mM Mg2+; kobs k1 126 s-1, k2 7.0 s-1; Stopped-flow, 37 °C, 10 mM CaCl2 or 10 mM MgCl2 (or 0.4 mM EDTA without divalent metal); 1 µM enzyme (Trp) or 1 µM DNA (FRET); buffer, salt and pH not in the supplied text.
Data set [7] addresses T1, Nt.BspD6I. The data set is described as follows: stopped-flow Trp fluorescence; 10 mM Mg2+; kobs k1 232 s-1, k2 21 s-1; Stopped-flow, 37 °C, 10 mM CaCl2 or 10 mM MgCl2 (or 0.4 mM EDTA without divalent metal); 1 µM enzyme (Trp) or 1 µM DNA (FRET); buffer, salt and pH not in the supplied text.
Data set [8] concerns the target T1, Nt.BspD6I. The data set is described as follows: stopped-flow Trp fluorescence; 10 mM Mg2+; kobs k1 490 s-1, k2 128 s-1; Stopped-flow, 37 °C, 10 mM CaCl2 or 10 mM MgCl2 (or 0.4 mM EDTA without divalent metal); 1 µM enzyme (Trp) or 1 µM DNA (FRET); buffer, salt and pH not in the supplied text.

B1: IV-23 (dsDNA)
DNA 1: GGTCTCGAGTCTTCTCAAGGTAC
DNA 2: GTACCTTGAGAAGACTCGAGACC
On to B1, for which the binding result in data set [1] was “binds”.

B2: VI-30 (dsDNA)
DNA 1: GCGTGGTCTCGAGTCTTCTCAAGGTACCTG
DNA 2: CAGGTACCTTGAGAAGACTCGAGACCACGC
For the molecule B2, the Kd in data set [2] was 13 ± 3 nM.

B3: VI-30N (dsDNA)
DNA 1: GTATGAAGCTAGAGCCAGGTTGGCAGCATC
DNA 2: GATGCTGCCAACCTGGCTCTAGCTTCATAC
Turning to B3, the results for the Kd in data set [3] and in data set [4] were 60 ± 20 nM and 70 ± 20 nM, respectively.

B4: II-19 (dsDNA)
DNA 1: GGTCTCGAGTCTTCTCAAG
DNA 2: CTTGAGAAGACTCGAGACC
In the case of B4, the binding result in data set [5] is recorded as “binds”.

B5: V-26 (dsDNA)
DNA 1: CGTGGTCTCGAGTCTTCTCAAGGTAC
DNA 2: GTACCTTGAGAAGACTCGAGACCACG
As for B5, the binding result in data set [6] is listed as “binds”.

B6: III-21 (dsDNA)
DNA 1: GGTCTCGAGTCTTCTCAAGGT
DNA 2: ACCTTGAGAAGACTCGAGACC
For the molecule B6, the binding result in data set [7] was “binds”.

B7: I-17 (dsDNA)
DNA 1: GGTCTCGAGTCTTCTCA
DNA 2: TGAGAAGACTCGAGACC
With B7, in data set [8], the binding result is listed as “binds”.
